Results: the Human Domainome abundance scans (Beltran et al. 2025)
± gives the uncertainty stated by the source.

B1: Androgen receptor, residues 557 to 632; numbered along this chain, P10275 (parent)
chain: QKTCLICGDEASGCHYGALTCGSCKVFFKRAAEGKQKYLCASRNDCTIDKFRRKNCPSCRLRKCYEAGMTLGARKL

Variants of: B1
Assay: abundance fitness (aPCA) (normalised: wild type 0, dead -1); higher = more abundant; growth selection in yeast, the domain comes from the species named
Conditions: Homo sapiens

Compared with QKTCLICGDEASGCHYGALTCGSCKVFFKRAAEGKQKYLCASRNDCTIDKFRRKNPPSCRLRKCYEAGMTLGARKL [C56P], QKTCLICGDEASGCHYGALTCGSCKVFFKRAAEGRQKYLCASRNDCTIDKFRRKNCPSCRLRKCYEAGMTLGARKL [K35R] is higher in abundance fitness: -0.812 ± 0.22 for the first, 0.004 ± 0.045 for the second.

First: QKTCLICGDEASGCHYGALTCGSCKVFFKRAAEGKQKCLCASRNDCTIDKFRRKNCPSCRLRKCYEAGMTLGARKL [Y38C]
Second: QKTCLICGDEASGCHYGALTCGSCFVFFKRAAEGKQKYLCASRNDCTIDKFRRKNCPSCRLRKCYEAGMTLGARKL [K25F]
The abundance fitness of the first is lower: -0.305 ± 0.11 for the first, -0.062 ± 0.029 for the second.

QKTCLICGDEANGCHYGALTCGSCKVFFKRAAEGKQKYLCASRNDCTIDKFRRKNCPSCRLRKCYEAGMTLGARKL [S12N] and QKTCLICGDEASGCHYGALTCGSCKVFFKRAAEGKQKYLCASRNDCTIDKFRRKNCWSCRLRKCYEAGMTLGARKL [P57W] are within error of each other in abundance fitness: 0.21 ± 0.1 for the first, 0 ± 0.13 for the second.

QKTCLICGDEASGCHYGALTCGSCKVFFKRAAEGKQKYLCASRNDCTIDKFRRKNCLSCRLRKCYEAGMTLGARKL [P57L] and QKTCLICGDEASGCHYGALTCGSCKVFFKRAAEGKQKYLCASRNCCTIDKFRRKNCPSCRLRKCYEAGMTLGARKL [D45C] are within error of each other in abundance fitness: -0.075 ± 0.063 for the first, -0.325 ± 0.21 for the second.

Compared with QKTCLICGDEASGVHYGALTCGSCKVFFKRAAEGKQKYLCASRNDCTIDKFRRKNCPSCRLRKCYEAGMTLGARKL [C14V], QKTCLDCGDEASGCHYGALTCGSCKVFFKRAAEGKQKYLCASRNDCTIDKFRRKNCPSCRLRKCYEAGMTLGARKL [I6D] is lower in abundance fitness: -0.231 ± 0.079 for the first, -0.646 ± 0.24 for the second.

Compared with QKTCLICGDEASGCHYGALTCGSCKVFFKRAAEGKQKYLCASRNQCTIDKFRRKNCPSCRLRKCYEAGMTLGARKL [D45Q], QKTCLICGDEASGCHYGALTCGSCKVFFKRAAEGKTKYLCASRNDCTIDKFRRKNCPSCRLRKCYEAGMTLGARKL [Q36T] is lower in abundance fitness: 0.176 ± 0.13 for the first, -0.173 ± 0.064 for the second.

Going from QKTCLICGDEASGCHYGALTCGSCKVFFKPAAEGKQKYLCASRNDCTIDKFRRKNCPSCRLRKCYEAGMTLGARKL [R30P] to QKTCLICGDEASGCHYGALTCGSCKVFFKRAAEGKKKYLCASRNDCTIDKFRRKNCPSCRLRKCYEAGMTLGARKL [Q36K], the abundance fitness rises from -0.395 ± 0.098 to 0.013 ± 0.08.

QKTCLICGDEASGCHYGALTCGSCKVFFKRAAEGKQKYLCASRNDCTIDKFRRKNCPSCRLRKCYEAGMTLGSRKL [A73S] and QKTCLICGDEASGCHYGALTCGSCKVFFKRAAEGTQKYLCASRNDCTIDKFRRKNCPSCRLRKCYEAGMTLGARKL [K35T] are within error of each other in abundance fitness: 0 ± 0.084 for the first, 0.039 ± 0.053 for the second.

Compared with QKTCLICGDEASGCHYGALTSGSCKVFFKRAAEGKQKYLCASRNDCTIDKFRRKNCPSCRLRKCYEAGMTLGARKL [C21S], QKTCLICGDEASVCHYGALTCGSCKVFFKRAAEGKQKYLCASRNDCTIDKFRRKNCPSCRLRKCYEAGMTLGARKL [G13V] is higher in abundance fitness: -1.05 ± 0.15 for the first, -0.061 ± 0.062 for the second.

QKTCLICGDEASGCHYGALTCGSCKVFFKRAAEGKQKYLCASRNDCTIDKFRRKNCPSCRLRKCSEAGMTLGARKL [Y65S] and QKTCLICGDEASGCHYGALTCGSCKVFFKRAAEGKQKYLCASRNDCTIDKFRRKNCPSCRLRKCWEAGMTLGARKL [Y65W] are within error of each other in abundance fitness: -0.208 ± 0.075 for the first, -0.044 ± 0.11 for the second.

QKTCLICGDEASGCHYGALTCGSCKMFFKRAAEGKQKYLCASRNDCTIDKFRRKNCPSCRLRKCYEAGMTLGARKL [V26M] and QKTCLICGDEASGCHYGAKTCGSCKVFFKRAAEGKQKYLCASRNDCTIDKFRRKNCPSCRLRKCYEAGMTLGARKL [L19K] are within error of each other in abundance fitness: 0.053 ± 0.042 for the first, -0.015 ± 0.043 for the second.

Compared with QKTCLICGDEASGCHYGALTCGSCKVFFKRAAEGKCKYLCASRNDCTIDKFRRKNCPSCRLRKCYEAGMTLGARKL [Q36C], QKTCLICGDEASGCHYGALTCGSCKVFFKRAAEGKQKYWCASRNDCTIDKFRRKNCPSCRLRKCYEAGMTLGARKL [L39W] is higher in abundance fitness: -0.2 ± 0.091 for the first, -0.064 ± 0.044 for the second.

QKTCLICGDEASGCHYGALTCGSCKVFFKRAAEGKQKYLCASRNDCTIDFFRRKNCPSCRLRKCYEAGMTLGARKL [K50F] and QKTCLICGDEATGCHYGALTCGSCKVFFKRAAEGKQKYLCASRNDCTIDKFRRKNCPSCRLRKCYEAGMTLGARKL [S12T] are within error of each other in abundance fitness: -0.277 ± 0.22 for the first, -0.149 ± 0.087 for the second.

Compared with QKTCLICGDEASGCHYGALTCGGCKVFFKRAAEGKQKYLCASRNDCTIDKFRRKNCPSCRLRKCYEAGMTLGARKL [S23G], QKTCLICGDEASGCHYGALTCGSCKVFFKRFAEGKQKYLCASRNDCTIDKFRRKNCPSCRLRKCYEAGMTLGARKL [A31F] is lower in abundance fitness: -0.054 ± 0.029 for the first, -0.214 ± 0.12 for the second.

QKTCLICGDEASGCHMGALTCGSCKVFFKRAAEGKQKYLCASRNDCTIDKFRRKNCPSCRLRKCYEAGMTLGARKL [Y16M] and QKTCLICGDEASGCHYGALTCGSCKVFFKRAAEGKQKYLCASRNDCTIDKFRRKNCPSCRLRKCYEAGMTLGAVKL [R74V] are within error of each other in abundance fitness: -0.11 ± 0.041 for the first, -0.063 ± 0.068 for the second.

Going from QKTCLICGDEASGCHYGALTCGSCKVFFKRAAMGKQKYLCASRNDCTIDKFRRKNCPSCRLRKCYEAGMTLGARKL [E33M] to QKTCLICGDEASGCHRGALTCGSCKVFFKRAAEGKQKYLCASRNDCTIDKFRRKNCPSCRLRKCYEAGMTLGARKL [Y16R], the abundance fitness falls from 0.014 ± 0.065 to -0.684 ± 0.043.

Compared with QKTCLICGDEASGCHYGALTCGSWKVFFKRAAEGKQKYLCASRNDCTIDKFRRKNCPSCRLRKCYEAGMTLGARKL [C24W], QKTCLICGDEASGCHYGALTCGSCKVFFKRAAEGKQKYLCASRNDCTIDKFRRKNAPSCRLRKCYEAGMTLGARKL [C56A] is higher in abundance fitness: -0.903 ± 0.059 for the first, -0.533 ± 0.18 for the second.

QKTCLICGHEASGCHYGALTCGSCKVFFKRAAEGKQKYLCASRNDCTIDKFRRKNCPSCRLRKCYEAGMTLGARKL [D9H] and QKTCLICGDEASGCHYGALTCGDCKVFFKRAAEGKQKYLCASRNDCTIDKFRRKNCPSCRLRKCYEAGMTLGARKL [S23D] are within error of each other in abundance fitness: 0.138 ± 0.35 for the first, -0.069 ± 0.069 for the second.
